T1: human TIGIT (Homo sapiens, UniProt Q495A1)
T1 sequence (Q495A1 22-244): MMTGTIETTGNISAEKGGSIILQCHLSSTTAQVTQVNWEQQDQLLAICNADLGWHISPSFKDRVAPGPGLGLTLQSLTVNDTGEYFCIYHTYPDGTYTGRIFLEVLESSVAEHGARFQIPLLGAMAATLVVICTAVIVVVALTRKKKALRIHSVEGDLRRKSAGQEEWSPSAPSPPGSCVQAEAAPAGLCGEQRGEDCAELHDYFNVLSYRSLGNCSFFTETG


Target: T1, human TIGIT
Assay: binding of anti-TIGIT antibodies to human TIGIT
Details: hamster-anti-mouse anti-TIGIT antibodies; qualitative statement, no method given

specific binding to human TIGIT | Molecule
specifically bound | 1F4: hamster-anti-mouse anti-TIGIT antibody; light chain SEQ ID NO:14, heavy chain SEQ ID NO:16 (antibody, V domains shown) VH: EVQLQQSGPELVKPGTSMKISCKASGYSFTGHLMNWVKQSHGKNLEWIGLIIPYNGGTSYNQKFKGKATLTVDKSSSTAYMELLSLTSDDSAVYFCSRGLRGFYAMDYWGQGTSVTVSS VL: DVVLTQTPLSLSVSFGDQVSISCRSSQSLVNSYGNTFLSWYLHKPGQSPQLLIFGISNRFSGVPDRFSGSGSGTDFTLKISTIKPEDLGMYYCLQGTHQPPTFGPGTKLEVK
specifically bound | 10A7: hamster-anti-mouse anti-TIGIT antibody; light chain SEQ ID NO:13, heavy chain SEQ ID NO:15 (antibody, V domains shown) VH: EVQLVESGGGLTQPGKSLKLSCEASGFTFSSFTMHWVRQSPGKGLEWVAFIRSGSGIVFYADAVRGRFTISRDNAKNLLFLQMNDLKSEDTAMYYCARRPLGHNTFDSWGQGTLVTVSS VL: DIVMTQSPSSLAVSPGEKVTMTCKSSQSLYYSGVKENLLAWYQQKPGQSPKLLIYYASIRFTGVPDRFTGSGSGTDYTLTITSVQAEDMGQYFCQQGINNPLTFGDGTKLEIKR

Source: patent US20220331426A1, “METHODS OF TREATING CANCER USING TIGIT INHIBITORS AND ANTI-CANCER AGENTS” (Genentech, Inc., priority 2014, published 2022)
